The source of these data is publication PMC11045745, “NMR characterization of RNA binding property of the DEAD-box RNA helicase DDX3X and its implications for helicase activity”.

The target in the series is DDX3X core WT (Homo sapiens, UniProt O00571 132-607). Nature of the series: NMR (13C-1H HMQC); AMPPNP; apparent affinity lower than E348Q with ATP; EMSA: 20 mM HEPES-NaOH pH 7.4, 100 mM NaCl, 5 mM DTT, 10% glycerol, 5 mM ATP/MgCl2 or ADP/EDTA, 100 nM RNA; NMR: 35 C (30 C for UA-12mer), 40-50 uM protein (HMQC) or 100 uM RNA (19F), 5 mM ATP/MgCl2; NMR buffer not given in the material. The following applies: protein: recombinant; tags: His6-SUMO removed (Ulp1); two-Gly linker.
Sequence of DDX3X core WT (O00571 132-607): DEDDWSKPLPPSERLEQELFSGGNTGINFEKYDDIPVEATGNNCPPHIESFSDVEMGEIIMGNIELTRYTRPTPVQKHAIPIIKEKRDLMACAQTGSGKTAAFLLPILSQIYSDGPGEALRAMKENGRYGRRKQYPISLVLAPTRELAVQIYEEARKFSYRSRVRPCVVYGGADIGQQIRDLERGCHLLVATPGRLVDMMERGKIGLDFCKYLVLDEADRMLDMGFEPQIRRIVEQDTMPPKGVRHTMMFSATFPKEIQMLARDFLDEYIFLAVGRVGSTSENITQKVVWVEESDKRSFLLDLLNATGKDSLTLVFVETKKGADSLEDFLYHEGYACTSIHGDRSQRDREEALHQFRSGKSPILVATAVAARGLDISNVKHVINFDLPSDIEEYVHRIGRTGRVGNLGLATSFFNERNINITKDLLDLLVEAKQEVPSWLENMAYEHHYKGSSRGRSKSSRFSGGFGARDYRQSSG

Consider UUUUUUUUUU (ssRNA) [poly-U10], for which the binding result was “binds”.
